Assay results taken from paper PMC5929103.

Legend:
[1] = biological target: mesotrypsin (Homo sapiens) (UniProt P35030); settings: cited from earlier work
[2] = biological target: human kallikrein-6, active (human) (UniProt Q92876); test: enzyme inhibition kinetics
[3] = biological target: yeast-displayed APPI_(M17G/I18F/F34V) (human); test: flow cytometry on cells

UniProt P35030, sequence (P35030 2-304): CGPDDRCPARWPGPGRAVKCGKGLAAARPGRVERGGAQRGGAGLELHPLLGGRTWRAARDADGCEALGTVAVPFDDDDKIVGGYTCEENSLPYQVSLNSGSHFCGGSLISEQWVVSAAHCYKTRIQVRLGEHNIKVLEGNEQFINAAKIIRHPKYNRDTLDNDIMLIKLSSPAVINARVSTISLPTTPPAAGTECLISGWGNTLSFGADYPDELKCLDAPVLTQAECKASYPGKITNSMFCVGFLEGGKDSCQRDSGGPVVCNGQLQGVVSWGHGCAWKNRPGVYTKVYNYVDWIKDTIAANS

Kd [3]	Substance	also measured
42 nM	catalytically inactive human anionic trypsin S195A, labelled with DyLight 650 (enzyme)	
31 nM	catalytically inactive human cationic trypsin S195A, labelled with DyLight 650 (enzyme)	

Second part, the substance before the results:

Substance	Kd [3]	also measured
APPI Kunitz domain (from UniProt P05067)		Ki [1]: 140 nM
APPI_(P13W/M17G/I18F/F34V), soluble form (designed binder)		Ki [2]: 7.6 nM
catalytically inactive human mesotrypsin S195A, labelled with DyLight 488 (enzyme)	26 nM	
